Where no end group is shown, it is not given here.
How the values were obtained:
NS5B544 = molecular target: T1, NS5B544 (Hepatitis C virus genotype 1b, UniProt P26663); assay: HCV polymerase-inhibitory activity of synthetic peptide, pre-incubated with NS5B544; assay type: biochemical, HCV-BK strain; details: final concentration of 30 μM; pre-incubated with NS5B544 at 25° C. for 30 minutes
T1 construct: residue 1 (Ser) of the NS5B, a C-terminal amino acid residue of X′ is any one of amino acid residues 531 (Lys) to 544 (Gln); made in house; host or cells: E. coli
Protocol: The reaction mixture with the composition mentioned below (30 μl) was reacted at 25° C. for 90 min. • Reaction mixture: the HCV polymerase obtained in Example 1 (1 μg/ml), the template RNA obtained in Example 5 (10 μg/ml), ATP (50 μM), GTP (50 μM), CTP (50 μM), UTP (2 μM), [5, 6-^3H] UTP (46 Ci/mmol (Amersham), 1.5 μCi), 20 mM Tris-HCl (pH 7.5), EDTA (1 mM), MgCl2 (5 mM), NaCl (50 mM), DTT (1 mM), BSA (0.01%).
The reaction was terminated by adding 10% trichloroacetic acid at 4° C. and 1% sodium diphosphate solution (150 μl) to the reaction mixture, and kept in ice for 15 min to precipitate the RNA. The RNA was trapped on a glass filter (Whatman, GF/C) by suction filtration. The filter was washed with a solution containing 1% trichloroacetic acid and 0.1% sodium diphosphate, then with 90% ethanol, and dried. A liquid scintillation cocktail (Packard) was added to the RNA synthesized by the enzyme reaction, and the radioactivity of the RNA was measured by a liquid scintillation counter.
Next, a synthetic peptide was prepared by a conventional method and its HCV polymerase-inhibitory activity was assessed. […] The synthetic peptide and NS5B544 were pre-incubated at 25° C. for 30 minutes, and the polymerase activity was measured in the same manner as in Example 5. […]

HCV polymerase = assay: Measurement of the HCV polymerase activity (3H-UTP incorporation into template RNA); assay type: biochemical, HCV-BK strain; details: radioactivity of the NS5B591 enzyme reaction as standard; polymerase 1 μg/ml, 25° C., 90 min
Excerpt: The DNA fragment (148 bp) containing polyU and 3′ X sequence was completely synthesized using synthetic primers designed based on the sequence of the 3′ untranslational region of the HCV genome, and cloned into plasmid pBluescript SK II (+) (Stratagene). The cDNA encoding the full length NS5B prepared in the same manner as in Example 1 was digested with restriction enzyme KpnI to obtain the cDNA fragment covers the region from the restriction enzyme cleavage site to the stop codon. This cDNA fragment was ligated to the upstream of 3′ untranslational region DNA of pBluescript SK II (+). The DNA insert of about 450 bp in total was used as a template for preparing the template RNA. The plasmid was cleaved just after 3′ X sequence, circulated, treated with phenol/chloroform, and purified by ethanol precipitation to recover the DNA.
Using the purified DNA as a template, utilizing the promoter in pBluescript SK II (+), RNA was synthesized by the run-off method using MEGAscript RNA synthesis kit (Ambion), and T7 RNA polymerase (at 37° C. for 3 hours). DNaseI was added thereto and further incubated for 1 hour, and the template DNA was decomposed and removed to obtain the crude RNA product. The crude product was treated with phenol/chloroform, and purified by ethanol precipitation to obtain the desired template RNA. After confirming the quality of the RNA by agarose gel electrophoresis, the RNA was stored at −80° C. The RNA is a template suitable for the highly sensitive measurement of the polymerase activity. […]
The reaction was terminated by adding 10% trichloroacetic acid at 4° C. and 1% sodium diphosphate solution (150 μl) to the reaction mixture, and kept in ice for 15 min to precipitate the RNA. […] A liquid scintillation cocktail (Packard) was added to the RNA synthesized by the enzyme reaction, and the radioactivity of the RNA was measured by a liquid scintillation counter.
The activity of the HCV polymerase was calculated from the value of radioactivity in the enzyme reaction of each NS5B using the radioactivity in the enzyme reaction of NS5B591 as a standard.

Row | Substance | inhibition of the polymerase activity (NS5B544) | relative activity (%) (HCV polymerase)
1 | KDLSGWFK [positions 546 to 551 of HCV polymerase NS5B with a Lys residue attached to both ends] | 40 to 50% | –
2 | NS5B531: consecutive amino acid sequence 1-531 of NS5B with histidine tag | – | 2149%
3 | NS5B536: consecutive amino acid sequence 1-536 of NS5B with histidine tag | – | 2107%
4 | NS5B544: consecutive amino acid sequence 1-544 of NS5B with histidine tag GSHHDHHH | – | 2014%

Source: patent US20070042353A1, “HCV polymerase suitable for crystal structure analysis and method for using the enzyme” (Japan Tobacco Inc., priority 1999, published 2007)
